Source: the DeepSol protein solubility set

assay: soluble on expression in E. coli; label from the status in PepcDB or PDB records

| Sequence | soluble on expression in E. coli |
| --- | --- |
| MSNRFAVILAAGKGTRMKSKLYKVLHPVCGKPMVQHVVDQVSQLGLQKLVTVVGHGAEMVQEQLGNVSEFALQAEQLGTAHAVDQAAGVLANEEGTTLVICGDTPLITAETMEALLQQHKEAGAMATVLTAYIEEPAGYGRIVRNENGHVEKIVEHKDANEKELAIKEINTGTYCFDNKALFASLSKVSNDNVQGEYYLPDVIEILKNEGHIVSAYQTEHFDETLGVNDRVALSQAEIIMKNRINRKNMVNGVTIIDPSNTYISADAIIGSDTVLHPGTIIEGNTVIGSDCEIGPHTVIRDSEIGDRTTIRQSTVHDSKLGTEVSVGPFAHIRPDSVIGDEVRVGNFVEIKKTVFGNRSKASHLSYIGDAQVGEDVNLGCGSITVNYDGKNKFKTVIGNGVFIGCNSNLVAPVTVEDGAYVAAGSTITENVPSKALSVARARQVNKEDYVDQLLNKKKS | not soluble |
| MKAIIISIGDELLKGHRVNTNAPFIARELGNIGIPVTRIITCSDDPQAIRDSVTLALTEAEAVFVTGGLGPTNDDRTRDAVRALLGRGLALDEPSFERIADYFRRRNRPVTEVMKDQAMVIEGSIAIPNTKGTAPGMIIECAPRFAGRHLVLMPGVPAEMEAMMRLTVVPFFAPLSGAFIRHTPVMTMGIGETQLADMIVEVEDSLPSGTTLAYLPHAAGVSLMVSTSGA | not soluble |
| MGSDKIHHHHHHMGVSHGYVIWPLGSVHLISAIHPDILEKLMTKTLLLYSTVDGQTLAICQRMQTVMTQAGEQVELLSLNDCSGDALTQVDRVLIGASIRYGKHRPELLSFTNTHQDLLNSKMNGFFTVNVVARKPEKNTPATNPYMIKFLQLSAWQPKVLGVFAGKIAYPKYGPFDRFMIRFIMWMTKGPTDTKGTFEFTDWNKVDEFAGSFVKQ | not soluble |
| MKITVIGAGNVGATTAFRLAEKQLARELVLLDVVEGIPQGKALDMYESGPVGLFDTKVTGSNDYADTANSDIVIITAGLPRKPGMTREDLLMKNAGIVKEVTDNIMKHSKNPIIIVVSNPLDIMTHVAWVRSGLPKERVIGMAGVLDAARFRSFIAMELGVSMQDINACVLGGHGDAMVPVVKYTTVAGIPISDLLPAETIDKLVERTRNGGAEIVEHLKQGSAFYAPASSVVEMVESIVLDRKRVLPCAVGLEGQYGIDKTFVGVPVKLGRNGVEQIYEINLDQADLDLLQKSAKIVDENCKMLESTIG | soluble |
| MKYQVLLYYKYTTIEDPEAFAKEHLAFCKSLNLKGRILVATEGINGTLSGTVEETEKYMEAMQADERFKDTFFKIDPAEEMAFRKMFVRPRSELVALNLEEDVDPLETTGKYLEPAEFKEALLDEDTVVIDARNDYEYDLGHFRGAVRPDIRSFRELPQWIRENKEKFMDKKIVTYCTGGIRCEKFSGWLLKEGFEDVAQLHGGIANYGKNPETRGELWDGKMYVFDDRISVEINHVDKKVIGKDWFDGTPCERYINCANPECNRQILTSEENEHKHLGGCSLECSQHPANRYVKKHNLTEAEVAERLALLEAVEV | not soluble |
| MGRFQTLDYEIPESMQRSWQDIVNLLAQIADVPTTLIMRVHQNHIEVNTSSDTQGNPYKAGDKEDLGHGLYCEHVIETKSQLVVPDALADEKWSNNPDIKLGMLSYCGLPLFWPNGETFGTICMLDSKANEYSETYRQLLNTFKDSIEAQLAVVYQQYKLLR | not soluble |
| GPGSMAAGNSISVKVDVPSQVKGQGTLEMSYYIYPITMRLPGFMSDARFNRRYTDFETLRGQLCATYWYCIVPPIPEKESVQDKLGKLPRMVASAKETTASEGDLLEYRRISLRRFLQRLAYHPILGKSDLLQKFTNDNEWRQCIRDPVKPPR | not soluble |
| MAHHHHHHMPGRPGSAEELYGLVCALQKQQQLTQVDLRAVQRRTEALRQELHCQEALIAEEQAKREELAAKHTPGDAELRLAEAHARGAARASADAAQELRGARRAFLQKCHAQVLSVGKGPTDPRRSGAPVAPSNCTPLSSAADESSSGSLSAVGLGPRREATLMPAAAVRQLLLLLREKLMRCIEVGSTAVPAPFVVASVVAPATEGGSSEQPRDCRPSDEQGAAAKVATSVMSPLTAAKSPHGPPSKSVTDACVRGASDDQSPPREKKSIGFAPECCFERVTAVPAANVNRGTRETWLTEGAPGACGSTAVVPPAANVTLDGDNHPSNACLRNDSRPRTQRFDGHFTVRVASRSATLVAEAAAMGAKRQRASEAAIAAQSSPPKAARADGDKGVSASRAPQGAGVAAAFPPAYTSNRDRLVAPVDLLSPRSAEARRNGSSGSGRRTVWTWTRGTSREP | not soluble |
| MAHHHHHHMKAFFIGKREYRRVLSLQETIFNAKIARQVSVRRGASKLPLLPDVVILVEHSTPVYTIGRRDTTHGLPPHCSIDVVKTRRGGGITYHGPGQLTMYPIANIQLLWKDCTAEKPRSPIEWFSWALEEAMIQTAAMYHIPTHRFKTGVWADQYKDIPAQKLGAVGLQLGSWVSMHGAGLNVASDLHFFDDIIMCELPDRRATSLSNEMQHRGVAESPPLVQATAPVLLQKFIESLHQQPSCAAPQLVDLSADADWHERVIDTAGISTP | not soluble |
| MSFIDPYQHIIVEHQYSHKFTVVVLRATKVTKGAFGDMLDTPDPYVELFISTTPDSRKRTRHFNNDINPVWNETFEFILDPNQENVLEITLMDANYVMDETLGTATFTVSSMKVGEKKEVPFIFNQVTEMVLEMSLEV | soluble |
| MGSIPRVLISADRSSSGKTTISMGLMAALVSRGYKVQPFKVALDYIDPSYHTEITGRFCRNLDGYLMDEHGILDVYTHACETGGGADIAIIEGVRGLFEGFESLSDVGSTAQIAKILKCPVVFVINARSITRSAAALIGGYKNFDPDVEIAGVILNNIGGRRHAQKAKEAIEHYTGVPVLGIIPRDPSMQISMRHLGLMPALEGLEHHHHHH | not soluble |
| MGSDKIHHHHHHMTYINAQGRLKGCKPIAVIDIGSNSVRLVIYEGLVRSPTVLFNEKILCGLGQGVAKTGLLEENSMNMALRTLKRFRALCLQIGADEIYILATAAAREAKNGLAFIQNAENILQNKIYLLSGSEEAVYSAYGVISTFYQPKGISGDLGGGSLELIDIDNSEVGEGITLPLGGLRLQYMSNNDIAVAAKIAQEQFGKSAVVHKSMARCFYAVGGTWRNLAKLHMATKHYRLPVMHGYEVDAVEMEDFLRFVVNGSIENMKGISAVSKNRRQLLSYGAIILIELIRCVGFEKIIFSGAGVREGFLYSRLPQEVRVSDPLIAACTEMAILRARSPKQAEELIDFTTNAFEVFGILETENECRYRKAACLLADIGWRIHPDYRGNEAANQIALGSYPGISHEGRAYAALAVFFRNTGSLIGEESLPIFQLASKDVIEKARILGEIMRIAHLFSASTTGVLPHLSWHKKIDHVVLHIPARYADLLGERPLSRLKKLSKIIELPLAFEIF | not soluble |
| MVYKTKLGEIEISDESIFTFEKGIPGFEHLRKFALVFPQETFPIGWLLSLEDSEVGLPVVDPKLVRADYDPAVPSEDLEEIEAENQEALLFFCVLTIPPGKPEKTTINLRAPIILNQKKKKGIQTILENEDYQLRHLLSEEIERSKTVVAAALEHHHHHH | soluble |
| MLDLLVVAPHPDDGELGCGGTLARAKAEGLSTGILDLTRGEMGSKGTPEEREKEVAEASRILGLDFRGNLGFPDGGLADVPEQRLKLAQALRRLRPRVVFAPLEADRHPDHTAASRLAVAAVHLAGLRKAPLEGEPFRVERLFFYPGNHPFAPSFLVKISAFIDQWEAAVLAYRSQFTGEAASETVGPKGVEARKAMRRYWGNYLGVDYAEPFVSPLPVLYVPWSRA | soluble |
| MENVVIIDAVRTPMGRSKGGAFRHVRAEDLSAHLMRAVISRNPGLNAAEIDDIYWGCVQQTLEQGFNIARNASLLAEIPHSVPAVTVNRLCGSSMQALHDGARAIMVGDAKISLIGGVEHMGHVPMNHGVDFHPGMGRTVAKAAGMMGLTAEMLAKIHNISRQSQDEFAFRSHQRAYAATQAGHFAKEIVATNGHDAEGVLKRFDFDEVIRPETNLSGLAALRPAFDPVNGTVTAGTSSALSDGASAMLIMSESRAKSLGLTPRARIRSMAVVGCDPSIMGYGPVPASQLALKRAGLELADIGLFELNEAFAAQSLACLKGLGLLESMDDKVNLNGGAIALGHPLGCSGARISTTLLNLMERRDVQFGLATMCIGLGQGIATVFERL | not soluble |
| MEGSEEHSTDGEISSSEEEDEDPTPAHAIPARPSSVVITPTSASFVIPRKKWDLQDKTVTLHRSPLCRDEDEKEETGNSSYTRGHKRRRGEVHGCTDESYGKRRHLPPGARAPRAPRAPRVPRAPRSPRAPRSNRATRGPRSESRGAGRSTRKQARQERSQRPLPNKPWFDMSLVKPVSKITFVTLPSPLASLTLEPIQDPFLQSMLAVAAHPEIGAWQKVQPRHELRRSYKTLREFFTKSTNKDTWLDARMQAIQNAGLCTLVAMLEETIFWLQEITYHGDLPLAPAEDILLACAMSLSKVILTKLKELAPCFLPNTRDYNFVKQLFYITCATARQNKVVETLSSSYVKQPLCLLAAYAAVAPAYINANCRRRHDEVEFLGHYIKNYNPGTLSSLLTEAVETHTRDCRSASCSRLVRAILSPGTGSLGLFFVPGLNQ | soluble |
| MSLQCDDCKTKLMPLVAHEVDHIDNRRDVAGDLDDSPDNLRAVNRDCHRRITMRQIAEAGAVGTMAPVWMPITQKPLTVVVGPPSAGKSTWVKAAAKASDLVIDLDILAPTVIGKPMWIADSRERSLVIRERNSLVAEYMRGKTAHPHCFLIDTAGSFKRRKFWLDRGADVVLLDTDKDICRARIRQCSARPESTRAGRLAAVDRWEEGHHHHHH | not soluble |
| MSLRLQFQLKVDGLEDESLVVRGFEGQESLSDSVWRCEPCYGFRYQVDLASALSNLTAEQFVDQTAHLTILRDGQVVQQINGIVRQLSKGDTGHRHTFYSLTLVPALERLSLRSNSRIFQQQSVPEIISILLQEMGIEDYAFALKRECAQREFCVQYRETDLQFLHRIAAEEGLVYSHLHEAQKHTLLFTDSSDSQPKLAKPVPYNALAGGEINLPYVVDLQFKTTAQVSHTELKDYSFKKPAYGFTQRTQGKDIAYQQPNYEHFDAPGRYKDDANGKAFSQIRLEYLRRDALLADAKSDEPLLLAGVRFDLQDHLDHAMNRDWLVVQANHQGTQPQALQEEGGSGATTYSNQLKLIPAHITWRARPCAKPQVDGPMIATVVGPQGEEIYCDNFGRVKVHFPWDRYSSSNEKSSCWVRVAQEWAGSQYGSMAIPRVGHEVIVSFLNGDPDQPIITGRTYHATNTAPYALPDHKTKTVLRTETEGHHHHHH | soluble |
| MNAPIEPHRFTLEPFEAHRFANLCGQLDEHLRLIEQRLDIEIRNRGNQFELIGETTQTRSAENLLRRLYRETKGTELTPDMVHLFLQESGVDGLDNHPAAEVGVSLRTKKGMIRPRGLNQQRYVKEVLSNDINFGIGPAGTGKTYLAVACAVDALEREQIRRILLVRPAVEAGEKLGFLPGDLAQKIDPYLRPLYDALYEMLGFEYVAKLIEKQVIEVAPLAYMRGRTLNNSFIILDESQNTTVEQMKMFLTRIGFGSTAVITGDITQVDLPKGTRSGLTHVIDVLKDVPGISFTHFKPKDVVRHPLVQRIVEAYERFDDQLSDGPSGNNGYSRDKNRNA | not soluble |
| MHTDTPSLESLLEAARQRYDVVFEPLTVDETPLDVLQIRNMRQHIDALVANRSVRDPLHDLPLWAKIWPASFVLGRFLRKASPEGRTLLEVGAGCGVTGLIASRYGFAHVTVSDINEDALLFARANVLKNGLEDRVSVRRVDVASTRLDEKFDVIAASEVLYLEELHRPLIKFLLRHLARREDAVAMLCTDTRRKMGRFFKQAERDFRIEEQLVGIRTTGDDGEEERRVFTIHRLHHKHPLEHHHHHH | not soluble |
